Data published in patent US6083914.

Assays:
[1] = target: platelets (human, fresh washed); experiment: competition: 300 uM soluble peptide against platelet adhesion to coated FN in the presence of Ca+2
[2] = target: platelets (human, fresh washed); experiment: competition: soluble peptide against divalent cation-independent adhesion of platelets to coated 45 kDa

TAVTQTYGGNSNGEP [FN312-326] gave a percent reduction of platelet adhesion to FN [1] of 50% and an ED50 [2] of 68 µM.

With QTYGGNSNGEPSVLPFTY [FN316-333] the ED50 [2] was > 2000 µM.

Binder TAVTQTYGGNSN [FN312-323] has an ED50 [2] of 712 µM and a fold reduction of apparent affinity against FN312-326 [2] of 10 fold.

TAVTQTY [FN312-318] was tested, and the ED50 [2] was > 2000 µM.
